Assay results reported in paper PMC11047093.

T1: His-APOBEC2 E100A (Mus musculus, UniProt Q9WV35 1-224, E100A)
T1 sequence: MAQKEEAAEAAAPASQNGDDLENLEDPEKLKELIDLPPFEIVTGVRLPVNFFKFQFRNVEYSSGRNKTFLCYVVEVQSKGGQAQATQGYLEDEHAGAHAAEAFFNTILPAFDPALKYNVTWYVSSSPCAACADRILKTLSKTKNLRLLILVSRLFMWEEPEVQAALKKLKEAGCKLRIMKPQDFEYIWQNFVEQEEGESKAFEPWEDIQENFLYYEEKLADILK

T2: His-APOBEC2 (Mus musculus, UniProt Q9WV35 1-224)
T2 sequence: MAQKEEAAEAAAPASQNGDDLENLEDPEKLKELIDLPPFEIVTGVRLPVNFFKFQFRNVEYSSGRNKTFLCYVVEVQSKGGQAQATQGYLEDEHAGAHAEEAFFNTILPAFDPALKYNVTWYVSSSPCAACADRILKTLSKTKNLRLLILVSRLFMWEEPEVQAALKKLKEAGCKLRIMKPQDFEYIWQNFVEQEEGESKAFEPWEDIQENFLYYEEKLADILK


Columns and labels:
His-APOBEC2 E100A = target: T1, His-APOBEC2 E100A; assay: MST
His-APOBEC2 = target: T2, His-APOBEC2; assay: MST

Binder | binding result (His-APOBEC2 E100A) | Kd (His-APOBEC2) [nM]
TCTCAAGAAAAAAAAAAAAAGAC (ssDNA) [A-tract (poly-A) motif] | no binding | 
GGCGGCGCGGCCCCGCCCCCTCCTCCGGC (ssDNA) [SP/KLF motif] | no binding | 926 ± 243
